Measurements from patent US20090263894A1 (AbbVie / Abbott, published 2009).

Target: T1, NGAL rAg L159A displayed on yeast (human, UniProt P80188 21-198)
T1 construct: Yeast display AGA2 fusion as m5
T1 chain: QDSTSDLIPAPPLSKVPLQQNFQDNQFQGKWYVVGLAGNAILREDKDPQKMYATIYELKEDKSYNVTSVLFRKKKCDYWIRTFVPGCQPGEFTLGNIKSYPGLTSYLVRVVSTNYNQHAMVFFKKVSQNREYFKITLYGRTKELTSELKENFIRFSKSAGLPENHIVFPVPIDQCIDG
Assay: flow cytometry, mAb titrated on yeast displaying NGAL
Description: The side chain of each of the NGAL rAg residues identified from the epitope selections was altered by site-directed mutagenesis to alanine to confirm the functional epitope (direct contact residues) of each NGAL mAb subclone.
The change in Gibbs free binding energy (ΔΔG_Ala-WT) was determined to assess the energetic impact of each alanine substitution for mAb binding. The change in Gibbs free binding energy upon alanine substitution was calculated using the following equation [2],
For these experiments, observed fluorescence (F) was used to solve for KD using equation [1]. The KD derived from equation [1] one was then used in equation [2] to derive the change in Gibbs free binding energy upon alanine substitution. The KD is read from the abscissa of each of the curves at the inflection point.

B1: anti-NGAL monoclonal antibody 1-903-430 (antibody, V domains shown)
VH: KIQLVQSGPELKKPGETVKISCKASGYTFTNYGMNWVKQAPGKGLKWMGWININTGEPTYAEEFKGRFAFSLETSATTAFLQINNLKNEDTATYLCARDSYSGGFDYWGQGTIVTVSS
VL: DIVMTQSPSSLSVSAGEKVTLSCKSSQSLLISGDQKNYLAWYQQKPGQPPKLLIYGASTRDSGVPDRFTGSGSGADFTLTISSVQAEDLAVYYCQNDHSFPPTFGAGTKLELKR
For B1, the Kd was 0.137 nM, the “ΔKD (KD against KD of WT)” value was 0.67 fold and the “ΔΔG Ala-WT” value was -0.23 kcal/mol.
